This note sets out measurements from patent US5955420, “Rse receptor activation” (Genentech, Inc., dated 1999).

This experiment addresses CD4-IgG (human, UniProt P01730). Kind of experiment: competition in the FBS-mediated CMK11-5 membrane binding assay.

Method: After a 30 min incubation at room temperature, 1 ml of ice cold assay buffer was added to each tube. Then, the membrane associated radioactivity was collected by centrifugation for 4 min at 15000 g, separated from unbound radioactivity by aspiration of the supernatant fluid and counted in a γ counter.

B1: Rse ligand (Rse-L) in fetal bovine serum, unpurified or Q-Sepharose enriched (ligand)
chain: ANTLLEETKKGNLERECIEELCNKEEAREIFENNPETEYFYPKYLGCLGSFRAGLFTAARLSTNAYPDLRSCVNAISDQCNPLPCNEDGFMTCKDGQATFTCICKSGWQGEKCESDINECKDPVNINGGCSQICENTPGSYHCSCKNGFVMLSNKKDCKDVDECVLKPSICGTAVCKNIPGDFECECAEGYKYNPVSKSCDDVDECAENLCAQLCVNYPGGYSCYCDGKKGFKLAQDQKSCEAVPVCLPLDLDKNYELLYLAEQFVGVVLYLKFRLPETTRFSAEFDFRTYDSEGVILYAESSDHSAWFLIALREGKIEIQFKNEKTTKMTTGGKVINDGLWHMVSVEELEQSISVKIAKEAVMNINKPGSLFKPTNGFLETKVYFAGVPRKMENALIRPINPRLDGCIRGWNLMNQGTSGVKEIIQEKQNKHCLVNVEKGSYYPGTGVAQFSINYKNESNPEAWQINVSLNIRPSAGTGVMLALVSDNTVPFALSLVDSATEKLQDILVSVESMVIGRIEAISLCSDQQTFLEIRVNRNNLELSTQLRKDSFHSEDFQRQFAILDEAMKGTVVTYLGGLPDVPFSATPVNAFYQGCMEVNINGVQVDLDEAISKHNDIRAHSCPSVWQKTKHT
With B1, the binding result is “no binding”.
